According to patent US20110182905A1 (published 2011):
Numbering of substitutions follows the chain as printed. “And” between values parts separate entries of the source, which are not always exact repeats. Equal values may be shown once. Blank lines part the entries; values can stand above or below the binder they belong to.

Assays:
[1] = target: T1, purified hGM-CSF (Biomol #2514, expressed in E. coli) (human, UniProt P04141 18-144); assay: cell-based or functional assay
rhesus GM-CSF [2] = target: rhesus GM-CSF (rhesus); assay: cell-based or functional assay
[3] = target: T1, purified hGM-CSF (Biomol #2514, …); assay: cell-based or functional assay; remark: listed apart in the source
[4] = target: T1, purified hGM-CSF (Biomol #2514, …); assay: cell-based or functional assay; remark: listed apart in the source
rhesus GM-CSF [5] = target: rhesus GM-CSF (rhesus); assay: cell-based or functional assay; remark: listed apart in the source
[6] = target: T2, recombinant hGM-CSF derived from yeast (Leukine, Berlex) (human, UniProt P04141 18-144); assay: SPR (Biacore), antibody captured on protein G, hGM-CSF injected
T2 construct: Bought protein; also called yeast hGM-CSF (Leukine); yeast rhGM-CSF
T2 sequence (P04141 18-144 limits assumed): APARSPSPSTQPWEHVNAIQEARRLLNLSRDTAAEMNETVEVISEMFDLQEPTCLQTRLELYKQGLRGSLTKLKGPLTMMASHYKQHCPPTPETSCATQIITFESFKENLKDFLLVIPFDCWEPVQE
Protocol: (§1) To calculate affinity constants for recombinant hGM-CSF binding to anti-hGM-CSF monoclonal antibodies, surface plasmon resonance (SPR) was performed on a Biacore System™ (FIG. 2).
(§2) In the method to analyze the interaction between antibodies and antigens, the purified antibodies were captured on a sensor chip via interaction with protein G immobilized to sensor chip surface, and then recombinant antigens were injected to the sensor chip. Purified antibodies were used and recombinant hGM-CSF was used as an antigen.

[7] = target: T3, recombinant hGM-CSF derived from E. coli (Peprotech) (human, UniProt P04141 18-144); assay: as above
T3 construct: Bought protein; also called E. coli hGM-CSF (Peprotech); E. coli rhGM-CSF
T3 sequence (P04141 18-144 limits assumed): as above
Protocol: as §1, §2

rhesus GM-CSF [8] = target: T4, rhesus GM-CSF (rhesus); assay: Biacore, antibody on mouse anti-human chip, soluble rhesus GM-CSF
T4 construct: also called rrGM-CSF (derived from HEK cells); recombinant rhesus GM-CSF
Source text: (§3) Mouse anti-human Biacore chips (GE Healthcare) are used to immobilize each of the antibodies and soluble commercially available purified GM-CSF (Biomol) is allowed to bind. The hGM-CSF used in these experiments is the same as that used in the bioassays described below.
The rhesus GM-CSF sequence is present in the public databases (e.g., GenBank Accession No NP_{—}001028121) and is used to design an expression clone as an Fc fusion protein. Protease cleavage sites are introduced to allow release of untagged rhesus GM-CSF protein.

marmoset GM-CSF = target: T5, marmoset GM-CSF (marmoset); assay: Biacore, antibody on mouse anti-human chip, soluble marmoset GM-CSF
T5 construct: also called rmGM-CSF (derived from HEK cells); recombinant marmoset GM-CSF
Source text: as §3
A marmoset GM-CSF expression clone (e.g., GenBank Accession No. B0KWQ4 with Methionine at position 53 and Proline at position 109) similar to the rhesus GM-CSF expression clone described above is generated.

[9] = target: T1, purified hGM-CSF (Biomol #2514, …); assay: Biacore, antibody on mouse anti-human chip, soluble hGM-CSF (Biomol)
Source text: as §3

[10] = target: T1, purified hGM-CSF (Biomol #2514, …); assay: own Biacore KD of EV1018 set against the 7 pM cited for MOR04357-Fab from WO2006/122797

T1 sequence (P04141 18-144 limits assumed): as above

IC50 in TF-1 proliferation assay [1]: 2.3 ng/ml and 15 pM | IC50 in TF-1 proliferation assay (rhesus GM-CSF [2]): 1.7 ng/ml and 11 pM | Ratio: Reference antibody (BVD2-21C11) to antibody of interest, TF-1 assay [3]: 413 ratio | IC50 in U937 IL-8 secretion assay [4]: 0.9 ng/ml and 6 pM | IC50 in U937 IL-8 secretion assay (rhesus GM-CSF [5]): 0.8 ng/ml and 5.6 pM | Kd [6]: 0.23 nM | Kd [7]: 0.15 nM | Kd (rhesus GM-CSF [8]): 0.381 nM | Kd (marmoset GM-CSF): 2.1 nM | Kd [9]: 0.112 nM | times less binding than MOR04357 [10]: ~16 fold
B1: EV1018 (antibody, human IgG1, lambda)
heavy: not shown
light: QSALTQETSVSGTVGQKVTLSCIGNNNNIGSHAVGWYQQISRGAPKMVLFGRSPPSGVPDRFSGSKSGTTASLIISGLQPEDEADYYCSTWDSSLSAVVFGGGTKLTVLRQPKAAPSVTLFPPSSEELQANKATLVCLISDFYPGAVTVAWKADSSPVKAGVETTTPSKQSNNKYAASSYLSLTPEQWKSHRSYSCQVTHEGSTVEKTVAPTECS
notes: also called wild-type EV1018; WT EV1018

IC50 in TF-1 proliferation assay [1]: 0.032 nM
B2: EV1018 variant 1 (antibody, human IgG1, lambda, L234A L235A)
heavy: not shown
light: B1 light with R110G, A153G

IC50 in TF-1 proliferation assay [1]: 0.0333 nM
B3: EV1018 variant 2 (antibody, human IgG1, lambda, L234A L235A, V domains shown)
VH: QVELVESGGGMVQPGMPLRLSCVASGFTFSSYGMHWVRQAPGKGLEWVALTYHHGNRKFYADSVRGRFTISRDNSKNTLYLQMTSLRAEDTAVYFCARESMGAINDNWGQGTLVIVSS
VL: QSALTQETSVSGTVGQKVTLSCIGNNNNIGSHAVGWYQQISRGAPKMVLFGRSPPSGVPDRFSGSKSGTTASLIISGLQPEDEADYYCSTWDSSLSAVVFGGGTKLTVLG

IC50 in TF-1 proliferation assay [1]: 5.7 ng/ml and 38 pM | IC50 in TF-1 proliferation assay (rhesus GM-CSF [2]): 2.8 ng/ml and 19 pM | IC50 in U937 IL-8 secretion assay [4]: 4.7 ng/ml and 31.3 pM | IC50 in U937 IL-8 secretion assay (rhesus GM-CSF [5]): 2.4 ng/ml and 16 pM | Kd [6]: 0.36 nM | Kd [7]: 0.15 nM | Kd (rhesus GM-CSF [8]): 0.739 nM and 0.543 nM | Kd (marmoset GM-CSF): 1.4 nM | Kd [9]: 0.152 nM
B4: EV1019 (antibody, human IgG1, lambda, V domains shown)
VH: QAQLVESGGGVVKPGGSLRLSCISSKFTFSSHAMHWVRQAPGKGLEWVAVIWHDGSKKYYADSVKGRFSVSRDNSKNTLFLQMDSLRAEDTAVYFCGKEWVGGTCDSWGQGTLVIVSS
VL: QPALTQEASVSGTVGQTVTLLCSGNSSNIGSYAVGWYQQISRGAPKIVVFGKSPASGIPDRFSGSKSGTTASLLVSGLQPEDEADYYCSTWDSRLSAVLFGGGTKLTVLR
notes: Fully human IgG1 lambda; also called EV1019 Batch 1; EV1019 Batch 2
